# In patent publication US20200262913A1 (ZymoGenetics, published 2020):
# Where a chain is given by its changes, count along the chain named. Names may count otherwise.
# T1: recombinant human IL-31 (as used in the NHK STAT3 phosphorylation assay of Example 5) (human, UniProt Q6EBC2 24-164, limits assumed)
# T1 sequence: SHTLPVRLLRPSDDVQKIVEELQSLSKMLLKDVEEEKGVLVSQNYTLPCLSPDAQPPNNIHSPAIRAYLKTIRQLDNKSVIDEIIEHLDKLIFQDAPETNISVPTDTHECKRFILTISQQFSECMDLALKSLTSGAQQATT
# T2: recombinant human IL-31 (hIL-31, BHK produced, A1277F, zcytor17lig CEE) (human, UniProt Q6EBC2 24-164)
# T2 construct: also called recombinant hIL-31
# T2 sequence: T1 sequence
# B1: humanized 292.12.3.1 construct clone 26 (12VH1-gly + HC(fback) + LC(F71Y)) (antibody, human IgG4, V domains shown)
# VH: QVQLVQSGAEVKKPGASVKVSCKASGYTLTRYWMQWVRQAPGQGLEWMGAIYPGDGDTRYSQKFQGRVTLTADKSISTAYMELSSLRSEDTAVYYCAFPDGYYAAPYGMDYWGQGTLVTVSS
# VL: DIQMTQSPSSLSASVGDRVTITCRASGNIHNYLAWYQQKPGKVPKLLIYNAKTLADGVPSRFSGSGSGTDYTLTISSLQPEDVATYYCQHFWSTPWTFGQGTKVEIKR
# B2: humanized 292.12.3.1 construct clone 13 (12VH1-gly + HC(F29L, M69L, R71A, T73K, V78A) + LC(fback)) (antibody, human IgG4, V domains shown)
# VH: B1 VH with F98R
# VL: B1 VL with G66R, G68E, D70Q, T72S
# B3: humanized 292.12.3.1 construct clone 29 (12VH1-gly + HC(F29L, T73K, R94F) + LC(F71Y)) (antibody, human IgG4, V domains shown)
# VH: B1 VH with L70M, A72R, A79V
# VL: B1 VL
# B4: humanized 292.12.3.1 construct clone 14 (12VH1-gly + HC(M69L, R71A, T73K, V78A, R94F) + LC(fback)) (antibody, human IgG4, V domains shown)
# VH: B1 VH with L29F
# VL: B1 VL with G66R, G68E, D70Q, T72S
# B5: humanized 292.12.3.1 construct clone 9 (12VH1-gly + HC(fback)) (antibody, human IgG4, V domains shown)
# VH: B1 VH
# VL: B1 VL with Y71F
# notes: also called 09
# B6: humanized 292.12.3.1 construct clone 31 (12VH1-gly + HC(F29L, M69L, R71A, V78A, R94F) + LC(F71Y)) (antibody, human IgG4, V domains shown)
# VH: B1 VH with K74T
# VL: B1 VL
# B7: humanized 292.12.3.1 construct clone 30 (12VH1-gly + HC(F29L, V78A, R94F) + LC(F71Y)) (antibody, human IgG4, V domains shown)
# VH: B1 VH with L70M, A72R, K74T
# VL: B1 VL
# B8: humanized 292.12.3.1 construct clone 28 (12VH1-gly + HC(F29L, R71A, R94F) + LC(F71Y)) (antibody, human IgG4, V domains shown)
# VH: B1 VH with L70M, K74T, A79V
# VL: B1 VL
# B9: humanized 292.12.3.1 construct clone 25 (12VH1-gly + HC(F29L, R94F) + LC(F71Y)) (antibody, human IgG4, V domains shown)
# VH: B1 VH with L70M, A72R, K74T, A79V
# VL: B1 VL
# B10: humanized 292.12.3.1 construct clone 18 (12VH1-gly + HC(fback) + LC(G66R, G68E, F71Y)) (antibody, human IgG4, V domains shown)
# VH: B1 VH
# VL: B1 VL with G66R, G68E
# B11: humanized 292.12.3.1 construct clone 17 (12VH1-gly + HC(fback) + LC(D70Q, F71Y, T72S)) (antibody, human IgG4, V domains shown)
# VH: B1 VH
# VL: B1 VL with D70Q, T72S
# B12: humanized 292.12.3.1 construct clone 16 (12VH1-gly + HC(fback) + LC(G66R, G68E, D70Q, T72S)) (antibody, human IgG4, V domains shown)
# VH: B1 VH
# VL: B1 VL with G66R, G68E, D70Q, Y71F, T72S
# B13: humanized 292.12.3.1 construct clone 27 (12VH1-gly + HC(F29L, M69L, R94F) + LC(F71Y)) (antibody, human IgG4, V domains shown)
# VH: B1 VH with A72R, K74T, A79V
# VL: B1 VL
# B14: humanized 292.12.3.1 construct clone 10 (12VH1-gly + LC(fback)) (antibody, human IgG4, V domains shown)
# VH: B1 VH with L29F, L70M, A72R, K74T, A79V, F98R
# VL: B1 VL with G66R, G68E, D70Q, T72S
# B15: humanized 292.12.3.1 construct clone 22 (12VH5-gly + HC(fback) + LC(G66R, G68E, D70Q, T72S)) (antibody, human IgG4, V domains shown)
# VH: EVQLVQSGAEVKKPGESLKISCKASGYTLTRYWMQWVRQMPGKGLEWMGAIYPGDGDTRYSPSFQGQVTLTADKSISTAYLQWSSLKASDTAMYYCAFPDGYYAAPYGMDYWGQGTTVTVSS
# VL: B1 VL with G66R, G68E, D70Q, Y71F, T72S
# B16: humanized 292.12.3.1 construct clone 23 (12VH5-gly + HC(fback) + LC(D70Q, F71Y, T72S)) (antibody, human IgG4, V domains shown)
# VH: B15 VH
# VL: B1 VL with D70Q, T72S
# Target: T1, recombinant human IL-31 (as used in the …)
# Test: cell-based or functional assay
Binder,"IC50, IL-31-induced STAT3 phosphorylation in NHK, Exp 8 [nM]","IC50, IL-31-induced STAT3 phosphorylation in NHK, Exp 9 [nM]","IC50, IL-31-induced STAT3 phosphorylation in NHK, Exp 6 [nM]","IC50, IL-31-induced STAT3 phosphorylation in NHK, Exp 7 [nM]"
B1,7.84,6.93,–,–
B2,–,–,46.5,211
B3,4.49,5.37,–,–
B4,–,–,71.9,242
B5,6.59,7.1,3.25,7.37
B6,11,7.82,–,–
B7,14.8,8.71,–,–
B8,10.5,5.95,–,–
B9,5.85,7.28,–,–
B10,–,–,2.6,2.68
B11,–,–,6.65,5.29
B12,–,–,3.84,6.22
B13,3.42,9.59,–,–
B14,–,–,68.8,224

# Target: recombinant human IL-31 (C108S), produced in E. coli by ZymoGenetics, MW 18 kDa (human), Q6EBC2
# Test: cell-based or functional assay
Binder,"Average Fold loss in potency relative to 292.12.3.1, BAF-3(hIL-31R) proliferation assay [fold]","Average Potency (IC50), inhibition of hIL-31-induced proliferation of BAF-3(hIL-31R) cells [nM]"
B15,13.2,14
B1,5.8,9.3
B2,99.1,109
B3,8.3,12.9
B5,15.1,28.5
B6,25.1,32.4
B16,7.6,8.6
B7,37.1,57.8
B8,17.1,26.4
B9,16.5,26.3
B10,5.9,8.1
B11,5.2,5.9
B12,9.8,10.6
B13,18.7,29.1

# Target: T2, recombinant human IL-31 (hIL-31, BHK …)
# Test: SPR (Biacore), against parent 292.12.3.1
# Protocol: (§1) The purified monoclonal antibodies were immobilized in individual flow cells on a CM5 type sensor chip. Immobilizations were performed using a standard amine coupling procedure, aiming for an immobilization level of 500 Resonance Units (RU). The antibodies were diluted to 1-5 ug/ml in 10 mM NaAc pH 4.5.
# (§2) HPS-EP pH 7.4 (10 mM HEPES, 150 mM NaCl, 3 mM EDTA and 0.005% Polysorbat P20) was used as running buffer, and diluents for the recombinant hIL-31 (hIL-31, BHK produced, A1277F, zcytor17lig CEE). The hIL-31 was tested in a 3-fold dilution series from 333.3 nM to 1.4 nM. Association (injection) was 4 min., followed by a 20 min. dissociation (wash) period. Flow rate was 50 ul/min. Experiments were performed at 25OC. Regeneration of the surface was accomplished by injection of 30 sec. pulse of 10 mM Glycin-HCl pH 1.8 or 1M formic acid, at a 30 ul/min flow rate. Detection in all flow cells simultaneously. Flow cell #1 contained no immobilized antibody, and was used for subtraction of background and bulk.
# (§3) The kinetic parameters were calculated by global fitting of the data using a 1:1 langmuir binding model. Data was inspected for mass-transport limitations prior to calculation of the kinetic parameters. In some experiments the Rmax was fitted locally, and the RI constant at 0.
Binder,Relative potency loss (kd),Relative potency loss (KD)
B15,~2 x to parent,–
B1,–,~0.4 x to parent
B2,~50 x to parent,~10 x to parent
B3,~1.5 x to parent,~0.5 x to parent
B4,~12 x to parent,~5.5 x to parent
B5,~1.5 x to parent,–
B6,–,~0.4 x to parent
B16,~1.5 x to parent,~0.6 x to parent
B7,~1.5 x to parent,~0.5 x to parent
B8,–,~0.25 x to parent
B9,–,~0.5 x to parent
B10,–,~0.5 x to parent
B11,–,~0.4 x to parent
B12,–,~0.5 x to parent
B13,~1.3 x to parent,~0.5 x to parent
B14,~245 x to parent,~85 x to parent

# Target: T2, recombinant human IL-31 (hIL-31, BHK …)
# Test: SPR (Biacore), mAb amine-coupled to CM5 chip, hIL-31 injected
# Protocol: as §1, §2, §3
Binder,Kd [nM],koff [s⁻¹],kon [M⁻¹ s⁻¹]
B15,1.7,0.00011,67000
B1,0.68,7e-05,100000
B2,24,0.003,120000
B3,0.99,8.98e-05,90000
B4,12.5,0.00073,59000
B5,2.1,9e-05,43000
B6,0.77,7e-05,92000
B16,1.4,9e-05,65000
B7,1.1,9e-05,78000
B8,0.46,5.6e-05,120000
B9,0.85,7.2e-05,85000
B10,1.13,6.2e-05,55000
B11,0.9,6.5e-05,70000
B12,1.2,7.5e-05,61000
B13,0.8,7.9e-05,98000
B14,186,0.015,88000
